Experimental data: paper PMC12185008, “The PavMYB.C2-UFGT module contributes to fruit coloration via modulating anthocyanin biosynthesis in sweet cherry”

T1: PavMYB.C2 (Prunus avium (sweet cherry), UniProt A0A6P5T6R9 1-74)
T1 sequence: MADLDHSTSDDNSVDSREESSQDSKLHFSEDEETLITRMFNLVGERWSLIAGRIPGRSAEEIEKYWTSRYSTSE

B1: UFGT promoter MBS3 probe (dsDNA)
DNA 1: TTCACTCCTCGACTCAGCAAGTGGTTATTTAGTGGTAGAGTTTGTTTTGA
DNA 2: TCAAAACAAACTCTACCACTAAATAACCACTTGCTGAGTCGAGGAGTGAA
B2: UFGT promoter MBS1 probe (dsDNA)
DNA 1: GATCGATATTTAGAGAGAGAAACAACCACCCGCGTGATGTGTGAGAGAAA
DNA 2: TTTCTCTCACACATCACGCGGGTGGTTGTTTCTCTCTCTAAATATCGATC
B3: UFGT promoter MBS2 probe (dsDNA)
DNA 1: TGAGAGAAAGAAATAAAAATCAGAAACAAAGGTAGCGTTTTTCTTTCTTT
DNA 2: AAAGAAAGAAAAACGCTACCTTTGTTTCTGATTTTTATTTCTTTCTCTCA

The binders below were run against T1, PavMYB.C2 (assay: EMSA; EMSA/Gel-Shift Kit (Beyotime) with LightShift chemiluminescent EMSA kit (Thermo Fisher), standard protocol; buffer, salt, pH and temperature not stated). Conditions: protein: recombinant; tags: GST (pGEX-4T-1); label: 3' biotin (Methods); blunt.

Binder | binding result
B1 | binds
B2 | no binding
B3 | no binding
